The record followed here is patent US20210188980A1 (SHANGHAI EPIMAB BIOTHERAPEUTICS, published 2021).

Substitutions are numbered along the chain they refer to. Names may count otherwise.

One may read the Kd as the concentration at which binding is half-saturated. Usually koff stands for a measure of how fast the partners let go of each other. Usually kon stands for the rate constant with which the complex forms. As a reminder, the IC50 is the point on the concentration scale where inhibition reaches its midpoint.

First the molecules themselves.
B1: mAb703c (antibody, V domains shown)
VH: DVQLQESGPGLVKPSQSLSLTCSVTGYSITTGYYWNWIRQFPGNKLEWMGYMSYDGNNNYNPSLKNRISITRDTSKNQFLLRLNSVTTEDTATYFCARDRGTTILGGTMDYWGQGTSVTVS
VL: SIVMTQTPKFLFVSAGDRVTIACKASQSVSNDVAWYQQKPGQSPKLLIYYAFYRYTGVPDRFTGSGYGTDFTFTISTVQAEDLAVYFCQQDYSSPWTFGGGTKLEIK
B2: HumAb703-12 (antibody, human IgG1, kappa, L234A L235A, V domains shown)
VH: EVQLQESGPGLVKPSETLSLTCAVSGYSISTGYYWNWIRQPPGKGLEWIGYMSYDGNNNYNPSLKNRITISRDTSKNQFSLKLSSVTAADTAVYYCARDRGTTILGGTMDYWGQGTTVTVSS
VL: DIQMTQSPSSLSASVGDRVTITCKASQSVSNDVAWYQQKPGKAPKLLIYYAFYRYTGVPDRFSGSGYGTDFTLTISSLQPEDFATYYCQQDYSSPWTFGGGTKVEIKR
notes: humanized mAb703
B3: HumAb703-22 (antibody, human IgG1, kappa, L234A L235A, V domains shown)
VH: B2 VH
VL: B2 VL with D1S, Q3V, A43S, S63T, Y87F
notes: humanized mAb703; also called HurnAb703-22
B4: HumAb703-11 (antibody, human IgG1, kappa, L234A L235A, V domains shown)
VH: B2 VH with I68V
VL: B2 VL
notes: humanized mAb703
B5: HumAb703-18 (antibody, human IgG1, kappa, L234A L235A, V domains shown)
VH: B2 VH with I49M
VL: B2 VL with A43S, Y87F
notes: humanized mAb703
B6: HumAb703-13 (antibody, human IgG1, kappa, L234A L235A, V domains shown)
VH: B2 VH with I49M
VL: B2 VL
notes: humanized mAb703
B7: HumAb713-6 (antibody, human IgG1, kappa, L234A L235A, V domains shown)
VH: EVQLVESGGGLVQPGGSLRLSCAASGFTFSDYGMHWVRQAPGKGLEWVSYISSGSYTIYYADTVKGRFTISRDNAKNSLYLQMNSLRDEDTAVYYCAKRGGSSHVNVMDYWGQGTTVTVSS
VL: DIQMTQSPSSLSASVGDRVTITCKASDHINNWLAWYQQKPGKAPKLLIYGATSLETGVPSRFSGSGSGTDYTFTISSLQPEDIATYYCQQYWSPPYTFGGGTKVEIKR
notes: humanized mAb713; also called HurnAb713-6
B8: HumAb713-4 (antibody, human IgG1, kappa, L234A L235A, V domains shown)
VH: B7 VH with F29S, S49A
VL: B7 VL with Y71F
notes: humanized mAb713
B9: HumAb713-9 (antibody, human IgG1, kappa, L234A L235A, V domains shown)
VH: B7 VH with K98R
VL: B7 VL with Y49S
notes: humanized mAb713
B10: HumAb713-2 (antibody, human IgG1, kappa, L234A L235A, V domains shown)
VH: B7 VH
VL: B7 VL with Y71F
notes: humanized mAb713
B11: HumAb713-10 (antibody, human IgG1, kappa, L234A L235A, V domains shown)
VH: B7 VH
VL: B7 VL with Y49S
notes: humanized mAb713
B12: HumAb713-8 (antibody, human IgG1, kappa, L234A L235A, V domains shown)
VH: B7 VH with F29S, S49A
VL: B7 VL
notes: humanized mAb713; also called HurnAb713-8
B13: HumAb713-12 (antibody, human IgG1, kappa, L234A L235A, V domains shown)
VH: B7 VH with F29S, S49A
VL: B7 VL with Y49S
notes: humanized mAb713
B14: HumAb713-15 (antibody, human IgG1, kappa, L234A L235A, V domains shown)
VH: B7 VH with F29S
VL: B7 VL with Y49S, T69K
notes: humanized mAb713
B15: HumAb713-13 (antibody, human IgG1, kappa, L234A L235A, V domains shown)
VH: B7 VH with K98R
VL: B7 VL with Y49S, T69K
notes: humanized mAb713
B16: HumAb713-5 (antibody, human IgG1, kappa, L234A L235A, V domains shown)
VH: B7 VH with K98R
VL: B7 VL
notes: humanized mAb713
B17: HumAb713-16 (antibody, human IgG1, kappa, L234A L235A, V domains shown)
VH: B7 VH with F29S, S49A
VL: B7 VL with Y49S, T69K
notes: humanized mAb713
B18: HumAb713-14 (antibody, human IgG1, kappa, L234A L235A, V domains shown)
VH: B7 VH
VL: B7 VL with Y49S, T69K
notes: humanized mAb713
B19: FIT107-1-7a-1 (bispecific antibody, human IgG1, kappa, L234A L235A)
chain 1: not shown
chain 2: EVQLVESGGGLVQPGGSLRLSCAASGFTSSDYGMHWVRQAPGKGLEWVSYISSGSYTIYYADTVKGRFTISRDNAKNSLYLQMNSLRDEDTAVYYCAKRGGSSHVNVMDYWGQGTTVTVSSASTKGPSVFPLAPSSKSTSGGTAALGCLVKDYFPEPVTVSWNSGALTSGVHTFPAVLQSSGLYSLSSVVTVPSSSLGTQTYICNVNHKPSNTKVDKKVEPKSC
chain 3: DIQMTQSPSSLSASVGDRVTITCRASQEISGYLSWLQQKPGGAIKRLIYAASALDSGVPSRFSGSRSGSDYTLTISSLQPEDFADYYCLQYASYPLTFGQGTKLELKRTVAAPSVFIFPPSDEQLKSGTASVVCLLNNFYPREAKVQWKVDNALQSGNSQESVTEQDSKDSTYSLSSTLTLSKADYEKHKVYACEVTHQGLSSPVTKSFNRGEC
notes: FIT-Ig hexamer; outer anti-PD-1 (HumAb713-7), inner anti-LAG-3 (HumAb747V-67 with G55A)
B20: FIT107-1-7a-3 (bispecific antibody, human IgG1, kappa, L234A L235A)
chain 1: not shown
chain 2: B19 chain 2
chain 3: B19 chain 3 with A53T
notes: FIT-Ig hexamer
B21: FIT107-1-7a-2 (bispecific antibody, human IgG1, kappa, L234A L235A)
chain 1: not shown
chain 2: B19 chain 2
chain 3: B19 chain 3 with S56L
notes: FIT-Ig hexamer; outer anti-PD-1 (HumAb713-7), inner anti-LAG-3 (HumAb747V-72 with G55A)
B22: FIT107-1-7b-2 (bispecific antibody, human IgG1, kappa, L234A L235A)
chain 1: not shown
chain 2: EVQLVQSGAEVKKPGATVKLSCTASGFNIKDDYMHWVKQRPEQGLDWIGWIVPRNANTVYASKFQGKATITADTSTNTAYLELSSLRSEDTAVYYCTVYGDYWGQGTTVTVSSASTKGPSVFPLAPSSKSTSGGTAALGCLVKDYFPEPVTVSWNSGALTSGVHTFPAVLQSSGLYSLSSVVTVPSSSLGTQTYICNVNHKPSNTKVDKKVEPKSC
chain 3: not shown
notes: FIT-Ig hexamer; outer anti-LAG-3 (HumAb747V-72 with G55A), inner anti-PD-1 (HumAb713-7)

The target in one assay is T1, human PD-1-His protein (human, UniProt Q15116 25-167, limits assumed).
T1 construct: also called huPD-1; not shown: His tag
T1 sequence (Q15116 25-167 limits assumed): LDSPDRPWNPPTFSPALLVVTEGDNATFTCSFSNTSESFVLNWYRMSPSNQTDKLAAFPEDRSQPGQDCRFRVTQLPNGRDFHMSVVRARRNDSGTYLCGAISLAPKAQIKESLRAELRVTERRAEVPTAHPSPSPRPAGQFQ
As to the kind of experiment: SPR Biacore. On the technique in general: SPR reads the build-up and loss of mass on a sensor chip optically.
Consider B1, for which the Kd stood at 2.68 nM, the off-rate (koff) stood at 0.000966 s⁻¹ and the kon is 359000 M⁻¹ s⁻¹.

B2 had a Kd of 9 nM, a koff of 0.00159 s⁻¹ and a kon of 177000 M⁻¹ s⁻¹.

Molecule B3 returned a Kd of 6.94 nM, a koff of 0.00159 s⁻¹ and a kon of 229000 M⁻¹ s⁻¹.

As to B4, the Kd turned out to be 9.37 nM, the koff stood at 0.00176 s⁻¹ and the kon amounted to 187000 M⁻¹ s⁻¹.

The molecule B5 gave a Kd of 18.9 nM, a koff of 0.00124 s⁻¹ and a kon of 65700 M⁻¹ s⁻¹.

B6 came in with a Kd of 10.6 nM, a koff of 0.00154 s⁻¹ and a kon of 145000 M⁻¹ s⁻¹.

The target of another assay is T2, human PD-1 expressed on cells (human, UniProt Q15116 25-288).
T2 construct: whole, on cells; also called CHO-K1/huPD-1; CHO-K1-hPD-1 cells
T2 sequence (Q15116 25-288): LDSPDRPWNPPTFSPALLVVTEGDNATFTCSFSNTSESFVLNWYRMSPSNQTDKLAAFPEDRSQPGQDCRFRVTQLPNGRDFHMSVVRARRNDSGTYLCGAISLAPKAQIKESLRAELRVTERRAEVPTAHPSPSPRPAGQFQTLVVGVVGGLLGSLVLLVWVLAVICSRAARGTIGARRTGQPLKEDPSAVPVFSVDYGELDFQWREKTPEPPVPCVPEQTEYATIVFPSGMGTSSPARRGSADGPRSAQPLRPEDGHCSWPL
Briefly: cell RBA FACS; competitor PD-L1/Fc.
B7: the IC50 came to 1.04 nM.

B8 registered an IC50 of 1.06 nM.

B9 had an IC50 of 1.2 nM.

The molecule B10 gave an IC50 of 1.71 nM.

B11 yielded an IC50 of 0.8 nM.

Take B12: the IC50 stood at 1.05 nM.

B13 registered an IC50 of 0.94 nM.

B14 returned an IC50 of 0.88 nM.

As for B15, the IC50 turned out to be 0.7 nM.

For B16, the IC50 was found to be 0.91 nM.

B17 returned an IC50 of 0.65 nM.

Molecule B18 gave an IC50 of 0.91 nM.

Another assay has as its target T2, human PD-1 expressed on cells. Briefly: cell RBA FACS; competitor PD-L2/Fc.
B7 displayed an IC50 of 1.46 nM.

B8 gave an IC50 of 2.24 nM.

Consider B9, for which the IC50 came out at 2 nM.

Regarding B10, the IC50 is 3.13 nM.

In turn, B11 returned an IC50 of 1.23 nM.

As to B12, the IC50 came to 1.91 nM.

In turn, B13 had an IC50 of 1.59 nM.

The molecule B14 came in with an IC50 of 1.65 nM.

In the case of B15, the IC50 was 2.13 nM.

In the case of B16, the IC50 was 2.95 nM.

On to B17, for which the IC50 stood at 1.63 nM.

B18: the IC50 turned out to be 1.45 nM.

The target in the next assay is T3, recombinant human LAG-3-his protein (Novoprotein) (human, UniProt P18627 23-450).
T3 construct: Bought; also called huLAG-3; not shown: His tag
T3 sequence (looked up): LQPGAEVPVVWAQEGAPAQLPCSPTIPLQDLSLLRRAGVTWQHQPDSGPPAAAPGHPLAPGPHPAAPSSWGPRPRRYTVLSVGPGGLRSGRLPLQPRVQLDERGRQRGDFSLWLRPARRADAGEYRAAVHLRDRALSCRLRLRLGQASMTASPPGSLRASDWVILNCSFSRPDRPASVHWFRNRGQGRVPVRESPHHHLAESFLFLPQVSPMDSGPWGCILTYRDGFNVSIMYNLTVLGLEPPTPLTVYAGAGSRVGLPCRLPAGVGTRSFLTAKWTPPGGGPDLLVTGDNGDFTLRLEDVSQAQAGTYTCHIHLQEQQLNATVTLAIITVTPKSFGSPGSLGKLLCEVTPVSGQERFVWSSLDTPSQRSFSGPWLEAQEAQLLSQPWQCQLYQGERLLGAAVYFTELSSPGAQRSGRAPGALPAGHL
As to the kind of experiment: BLI Octet, FIT-Ig captured, antigen analyte. A general note: Biolayer interferometry detects binding as a change in optical thickness at a sensor tip.
As to B19, the Kd was 0.732 nM, the koff amounted to 0.000124 s⁻¹ and the kon worked out at 169000 M⁻¹ s⁻¹.

In the case of B20, the Kd was determined as 1.47 nM, the off-rate (koff) worked out at 0.000134 s⁻¹ and the kon stood at 91000 M⁻¹ s⁻¹.

With B21, the Kd was found to be 1.22 nM, the koff came out at 0.000128 s⁻¹ and the kon was 105000 M⁻¹ s⁻¹.

As for B22, the Kd is 1.41 nM, the koff is 0.000246 s⁻¹ and the kon worked out at 174000 M⁻¹ s⁻¹.

Another assay addresses T1, human PD-1-His protein. Briefly: BLI Octet, FIT-Ig captured, antigen analyte.
As for B19, the Kd amounted to 3.04 nM, the koff was found to be 0.000538 s⁻¹ and the kon was 177000 M⁻¹ s⁻¹.

B20 returned a Kd of 3.01 nM, a koff of 0.000628 s⁻¹ and a kon of 208000 M⁻¹ s⁻¹.

Molecule B21 displayed a Kd of 3.17 nM, a koff of 0.000526 s⁻¹ and a kon of 166000 M⁻¹ s⁻¹.

With B22, binding was characterised by a dissociation constant (Kd) of 7.9 nM, the koff came out at 0.000827 s⁻¹ and the kon is 105000 M⁻¹ s⁻¹.
